Test results published in patent US20070059309A1 (Genentech, published 2007).

Legend:
Assay in all cases: cell-based or functional assay
recombinant human IFN-α5 [1] = biological target: T1, recombinant human IFN-α5 (human, UniProt P01569 24-189, limits assumed)
recombinant human IFN-α4 = recombinant human IFN-α4 (human, UniProt P05014 24-189)
recombinant human IFN-α5 [2] = biological target: T1, recombinant human IFN-α5; remark: listed apart in the source
recombinant human IFN-α1 = recombinant human IFN-α1 (human)
recombinant human IFN-α1 (human), sequence (P01562 24-189): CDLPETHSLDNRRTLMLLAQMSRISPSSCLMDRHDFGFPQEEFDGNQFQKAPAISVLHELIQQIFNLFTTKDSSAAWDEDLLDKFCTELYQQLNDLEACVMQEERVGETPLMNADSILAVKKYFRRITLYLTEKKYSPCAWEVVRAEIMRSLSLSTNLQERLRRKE

T1 sequence (P01569 24-189 limits assumed): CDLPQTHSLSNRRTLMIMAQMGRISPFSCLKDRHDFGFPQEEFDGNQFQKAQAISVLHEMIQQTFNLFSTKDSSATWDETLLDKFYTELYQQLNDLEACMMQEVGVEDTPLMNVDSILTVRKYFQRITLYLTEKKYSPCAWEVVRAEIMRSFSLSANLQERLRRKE
recombinant human IFN-α4, sequence (P05014 24-189 limits assumed): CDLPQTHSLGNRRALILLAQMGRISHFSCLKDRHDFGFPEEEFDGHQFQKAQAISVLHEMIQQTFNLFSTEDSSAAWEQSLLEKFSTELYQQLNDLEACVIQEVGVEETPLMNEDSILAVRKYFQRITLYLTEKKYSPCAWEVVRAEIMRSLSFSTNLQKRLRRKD

Row | Binder | EC50 (read off the curve); neutralization of anti-viral activity, EMC virus / A549 cells (recombinant human IFN-α5 [1]) [µg/mL] | EC50 (read off the curve); neutralization of anti-viral activity, EMC virus / A549 cells (recombinant human IFN-α4) [µg/mL] | EC50 (read off the curve); neutralization of anti-viral activity, EMC virus / A549 cells [left panel] (recombinant human IFN-α5 [2]) [µg/mL] | EC50 (read off the curve); neutralization of anti-viral activity, EMC virus / A549 cells [right panel] (recombinant human IFN-α1) [µg/mL]
1 | murine anti-human IFN-α monoclonal antibody 9F3 (antibody, IgG2, V domains shown) VL: DIVLTQSPASLAVSLGQRATISCRASQSVSTSSYSYMHWYQQKPGQPPKVLISYASNLESGVPARFSGSGSGTDFTLNIHPVEEGDTATYFCQHSWGIPRTFGAGTKLELRR V domain: EVQLQQSGPELVKPGASVKISCKTSGYTFTEYIIHWVKQGHGRSLEWIGSINPDYDITNYNQRFKGKATLTLDKSSRTAYLELRSLTSEDSAVYYCASWISDFFDYWGQGTTLMVSA | ~1 | ~1 | ~0.2 | –
2 | chimeric protein CH8-2 (antibody, V domains shown) VL: DIVLTQSPASLAVSLGQRATISCRASQSVSTSSYSYMHWYQQKPGQPPKVLISYASNLESGVPARFSGSGSGTDFTLNIHPVEEGDTATYFCQHSWGIPRTFGAGTKLELRR V domain: EVQLQQSGPELVKPGASVKISCKTSGYTFTEYIIHWVKQGHGRSLEWIGSINPDYDITNYNQRFKGKATLTLDKSSRTAYLELRSLTSEDSAVYYCASWISDFFDYWGQGTTLMVSA | – | – | – | ~2
